Measured values reported in patent US20230203146A1 (Boehringer Ingelheim, published 2023).
Like-named read-outs stand apart in the source and are kept apart here.

Experiments:
[1] = target: T1, N-terminally FLAG-tagged cynomolgus Ang2 (HEK293T conditioned medium) (cynomolgus, UniProt O15123 19-496 (human entry), limits assumed); assay: competition ELISA, FLAG-cAng2 on coated cTie2-Fc
T1 construct: may be a nucleotide entry; also called cAng2; FLAG-cAng2
T1 chain: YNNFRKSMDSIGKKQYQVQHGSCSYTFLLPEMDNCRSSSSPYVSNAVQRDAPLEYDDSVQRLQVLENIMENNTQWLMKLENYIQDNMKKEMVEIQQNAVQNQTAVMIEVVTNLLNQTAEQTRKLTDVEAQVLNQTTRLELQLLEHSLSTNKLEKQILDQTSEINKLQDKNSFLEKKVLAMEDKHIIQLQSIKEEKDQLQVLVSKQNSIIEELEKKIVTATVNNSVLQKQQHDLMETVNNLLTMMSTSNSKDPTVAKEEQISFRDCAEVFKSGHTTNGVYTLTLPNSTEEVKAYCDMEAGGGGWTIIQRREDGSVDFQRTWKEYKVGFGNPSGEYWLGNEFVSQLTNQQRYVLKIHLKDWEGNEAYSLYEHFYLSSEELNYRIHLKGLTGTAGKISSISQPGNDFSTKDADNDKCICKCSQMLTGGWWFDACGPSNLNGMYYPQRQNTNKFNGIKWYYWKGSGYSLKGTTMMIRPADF
Procedure: (§1) In brief, 2 μg/mL of recombinant mouse Tie2-Fc or cyno Tie2-Fc is coated overnight at 4° C. in a 96-well MaxiSorp plate (Nunc, Wiesbaden, Germany). Coated wells are blocked with a 1% casein solution.

[2] = target: T2, N-terminally FLAG-tagged mouse Ang2 (HEK293T conditioned medium) (mouse, UniProt O35608 19-496); assay: competition ELISA, FLAG-mAng2 on coated mTie2-Fc
T2 construct: may be a nucleotide entry; also called mAng2; FLAG-mAng2
T2 sequence: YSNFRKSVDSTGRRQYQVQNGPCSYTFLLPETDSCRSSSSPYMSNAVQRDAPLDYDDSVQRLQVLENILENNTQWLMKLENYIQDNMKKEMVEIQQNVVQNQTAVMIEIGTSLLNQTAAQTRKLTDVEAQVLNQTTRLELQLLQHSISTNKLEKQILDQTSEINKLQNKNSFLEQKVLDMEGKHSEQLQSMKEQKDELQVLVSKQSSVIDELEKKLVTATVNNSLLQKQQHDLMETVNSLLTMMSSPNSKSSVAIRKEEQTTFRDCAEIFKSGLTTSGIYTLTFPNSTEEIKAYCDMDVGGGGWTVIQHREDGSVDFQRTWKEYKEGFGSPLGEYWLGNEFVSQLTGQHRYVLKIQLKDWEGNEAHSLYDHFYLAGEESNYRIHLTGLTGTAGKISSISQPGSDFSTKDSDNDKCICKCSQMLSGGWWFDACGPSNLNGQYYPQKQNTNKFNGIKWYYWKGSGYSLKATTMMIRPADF
Procedure: as §1

[3] = target: T2, N-terminally FLAG-tagged mouse Ang2 …; assay: competition ELISA, FLAG-mAng2 on coated mTie2-Fc; remark: listed apart in the source
Procedure: as §1

[4] = target: T3, recombinant cynomolgus Ang2-FLD (cynomolgus); assay: SPR (Biacore T100), binder on CM5 chip, Ang2-FLD as analyte
T3 construct: domain: FLD; also called cyno Ang2-FLD
Summary of the method: (§2)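 Binders were immobilized by amine coupling onto a CM5 sensor chip, and Ang2-FLD from each species was passed over as analyte at 45 μL/min, with 2 min association and 20 min dissociation. Surfaces were regenerated between injections using a 10 sec 25 mM NaOH pulse and 60 sec stabilization. Rate constants came from a 1:1 Langmuir fit, and KD was derived from them.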

[5] = target: T4, recombinant mouse Ang2-FLD (mouse, UniProt O35608 275-496, limits assumed); assay: as above
T4 construct: domain: FLD
T4 sequence (looked up): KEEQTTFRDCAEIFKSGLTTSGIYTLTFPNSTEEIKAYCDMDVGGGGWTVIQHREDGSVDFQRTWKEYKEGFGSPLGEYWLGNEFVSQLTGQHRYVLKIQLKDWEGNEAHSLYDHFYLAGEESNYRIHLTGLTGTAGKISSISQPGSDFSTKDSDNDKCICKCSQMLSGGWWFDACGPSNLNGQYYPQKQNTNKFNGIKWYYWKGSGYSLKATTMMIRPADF
Summary of the method: as §2

[6] = target: T5, recombinant human Ang2-FLD (human, UniProt O15123 275-496, limits assumed); assay: as above
T5 construct: domain: FLD; not used
T5 sequence (looked up): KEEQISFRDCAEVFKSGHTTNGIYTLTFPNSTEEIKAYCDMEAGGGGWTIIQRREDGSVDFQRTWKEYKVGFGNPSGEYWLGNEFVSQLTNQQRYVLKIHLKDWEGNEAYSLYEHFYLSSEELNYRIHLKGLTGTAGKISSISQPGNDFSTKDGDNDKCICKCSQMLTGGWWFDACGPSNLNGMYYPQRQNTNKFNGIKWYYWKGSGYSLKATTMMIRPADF
Summary of the method: as §2

[7] = target: T6, FLAG-tagged recombinant human Ang1 (Alexis Biochemicals) (human, UniProt Q15389 20-498, limits assumed); assay: competition ELISA, FLAG-hAng1 (0.02 nM) on coated hTie2-Fc
T6 construct: Bought reagent; also called hAng1; FLAG-hAng1
T6 sequence (looked up): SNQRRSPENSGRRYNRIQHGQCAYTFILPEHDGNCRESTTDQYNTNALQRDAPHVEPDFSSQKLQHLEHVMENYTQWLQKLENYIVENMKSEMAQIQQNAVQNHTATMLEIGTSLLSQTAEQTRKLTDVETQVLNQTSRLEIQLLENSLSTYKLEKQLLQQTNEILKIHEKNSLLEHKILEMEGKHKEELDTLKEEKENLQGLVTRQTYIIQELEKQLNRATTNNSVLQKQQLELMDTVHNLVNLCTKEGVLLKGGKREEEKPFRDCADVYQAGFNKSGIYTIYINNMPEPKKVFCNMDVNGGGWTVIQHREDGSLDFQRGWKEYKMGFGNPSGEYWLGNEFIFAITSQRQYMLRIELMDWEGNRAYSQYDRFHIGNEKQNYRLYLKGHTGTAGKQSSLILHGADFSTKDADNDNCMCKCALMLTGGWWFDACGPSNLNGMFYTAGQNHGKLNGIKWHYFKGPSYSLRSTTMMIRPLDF
Procedure: (§3) In brief, 2 μg/mL of recombinant human Tie2-Fc (R&D Systems, Minneapolis, Minn., USA) is coated overnight at 4° C. in a 96-well MaxiSorp plate (Nunc, Wiesbaden, Germany). Coated wells are blocked with a 1% casein solution.

[8] = target: T6, FLAG-tagged recombinant human Ang1 …; assay: ratio of IC50 in hAng1/hTie2 ELISA to IC50 in hAng2/hTie2 ELISA
Procedure: In brief, 2 μg/mL of Tie2/Fc chimera (R&D Systems, Minneapolis, Minn., USA) is coated in a 96-well MaxiSorp plate (Nunc, Wiesbaden, Germany).
as §3

- IC50 [1]: 23.7 nM
- IC50 [2]: 21.4 nM
- IC50 [3]: 5.2 nM
- Kd [4]: 3.4 nM
- koff [4]: 0.023 s⁻¹
- kon [4]: 6.9e+06 M⁻¹ s⁻¹
- Kd [5]: 11 nM
- koff [5]: 0.026 s⁻¹
- kon [5]: 2.5e+06 M⁻¹ s⁻¹
- Kd [6]: 3.6 nM
- koff [6]: 0.021 s⁻¹
- kon [6]: 5.7e+06 M⁻¹ s⁻¹
- IC50 [7]: 2000 nM
- hAng1/hAng2 ratio [8]: 230
B1: VHH 10H02 (VHH)
VHH: EVQLVESGGGSVQAGGSLRLSCAASGFTFDDYAIGWFRQAPGKEREGVSCISSSDGSTNYADSVKGRFTISSDTAKNTVYLQMNSLKPEDTAVYYCTAVPATRRTPQMVDANMCWLAEYEYDYWGQGTQVTVSS
notes: also called 010H02; not shown: C-terminal c-myc tag and His6 tag
